Substitutions are numbered along the chain they refer to. Names may count otherwise.
T1: human prolactin receptor (PRLR) (human, UniProt P16471 25-622)
T1 sequence: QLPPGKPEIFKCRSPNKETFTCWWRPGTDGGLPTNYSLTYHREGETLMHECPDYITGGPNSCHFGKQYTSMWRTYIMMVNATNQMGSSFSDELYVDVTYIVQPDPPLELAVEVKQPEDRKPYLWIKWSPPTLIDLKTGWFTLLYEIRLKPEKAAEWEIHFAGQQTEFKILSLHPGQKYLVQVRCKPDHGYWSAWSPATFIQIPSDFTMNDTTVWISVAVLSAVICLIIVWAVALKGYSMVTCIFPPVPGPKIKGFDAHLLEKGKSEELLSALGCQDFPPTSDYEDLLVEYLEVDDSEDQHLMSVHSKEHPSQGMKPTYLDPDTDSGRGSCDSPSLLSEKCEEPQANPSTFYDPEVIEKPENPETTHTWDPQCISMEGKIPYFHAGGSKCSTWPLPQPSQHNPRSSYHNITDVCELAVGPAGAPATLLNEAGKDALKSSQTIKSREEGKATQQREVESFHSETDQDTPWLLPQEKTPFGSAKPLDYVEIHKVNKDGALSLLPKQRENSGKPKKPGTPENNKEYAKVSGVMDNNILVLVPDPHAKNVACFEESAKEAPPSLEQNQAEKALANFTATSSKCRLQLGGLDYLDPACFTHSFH

T2: hPRLR.mmh (soluble monomeric human PRLR) (human)
T2 construct: called soluble monomeric PRLR protein
T2 chain: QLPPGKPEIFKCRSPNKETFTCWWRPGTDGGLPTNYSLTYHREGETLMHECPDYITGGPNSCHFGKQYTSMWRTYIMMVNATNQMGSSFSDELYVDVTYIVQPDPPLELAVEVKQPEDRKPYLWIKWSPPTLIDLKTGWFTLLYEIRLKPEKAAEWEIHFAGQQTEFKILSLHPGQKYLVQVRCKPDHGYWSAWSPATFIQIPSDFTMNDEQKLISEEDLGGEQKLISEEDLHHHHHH

T3: hPRLR.mFc (soluble dimeric human PRLR) (human)
T3 construct: dimeric PRLR construct
T3 chain: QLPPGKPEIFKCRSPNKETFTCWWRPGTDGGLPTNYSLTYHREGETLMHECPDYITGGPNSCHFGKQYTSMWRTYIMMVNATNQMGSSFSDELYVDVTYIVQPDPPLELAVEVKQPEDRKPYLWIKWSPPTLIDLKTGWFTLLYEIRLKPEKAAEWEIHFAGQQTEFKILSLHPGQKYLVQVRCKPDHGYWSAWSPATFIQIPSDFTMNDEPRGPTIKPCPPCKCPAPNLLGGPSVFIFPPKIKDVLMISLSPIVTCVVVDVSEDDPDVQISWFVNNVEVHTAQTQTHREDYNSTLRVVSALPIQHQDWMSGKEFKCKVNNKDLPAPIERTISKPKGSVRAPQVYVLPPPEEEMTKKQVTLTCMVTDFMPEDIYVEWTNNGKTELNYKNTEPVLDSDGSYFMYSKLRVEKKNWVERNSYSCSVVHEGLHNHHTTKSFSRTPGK

T4: macaca fascicularis (mf) PRLR.mmh (soluble monomeric monkey PRLR) (Macaca fascicularis)
T4 construct: called soluble monomeric PRLR protein
T4 chain: T2 chain with I76V, A110T, I125M, I158T, T207I

B1: H1H6960N-DM1 (antibody, human IgG1, V domains shown)
VH: EVQLVESGGGLVKPGGSLRLSCAASGITFSSYSMNWVRQAPGKGLEWVSSISTRSSLIHYADSVKGRFTISRDNAKNSLYLQMNSLRDEDTAVYYCARWDAAAAFDYWGQGTLVIVSS
VL: DIQLTQSPSFLSASVGDRVTITCWASQGISSYLAWYQQKPGKAPKLLIYVASTLQSGVPSRFSGSGSGTEFTLTISSLQPEDFATYFCQQLNSYPLTFGGGTKVEIK
modifications: DM1 conjugated through SMCC linker; attachment residues not stated
B2: H1H6762P-DM1 (antibody, human IgG1, V domains shown)
VH: QVQLVESGGGVVQPGRSLRLSCAASGFTFSHYGMVWVRQPPGKGLEWVALISFDGTTKYYADSVKGRFTISRDNSKNTLYLQMNSLRAEDTAVYFCVGAIAAAAFDLWGRGTLVTVSS
VL: EIVMTQSPATLSVSPGERATLSCRASQSVSSDLAWYQQKPGQAPRLLIYSASARATGIPARFTGSGSGTDFTLTISSLQSEDFAVYYCQQYNNWPMYTFGQGTKLEIK
modifications: DM1 conjugated through SMCC linker; attachment residues not stated
B3: H1H6803P (antibody, human IgG1, V domains shown)
VH: EVQLVESGGGVVRPGGSLRLSCAASGFKFDDYGMTWVRHVPGKGLEWVSGINWNGGRTGYTDSVKGRFTISRDNAKNSLYLQMNSLRAEDTALYHCAGARRDAFDIWGQGTMVTVSS
VL: DIQMTQSPSSLSASIGDRVTITCRASQNIIKYLNWYQQNAGKAPKLLIYTASSLQSGVPSRFSGSGSGTDFTLTISSLQPEDFATYYCQQSSSSPYTFGQGTKLEIK
notes: Human IgG1 Fc (H1H)
B4: H1H6960N (antibody, human IgG1, V domains shown)
VH: B1 VH
VL: B1 VL
notes: Tested with human IgG1 Fc (H1H); also called H2M6960N
B5: H1H6953N (antibody, human IgG1, V domains shown)
VH: EVQLLESGGGLVQPGGTLRLSCAASGFTFSAYAMSWVRQAPGKGLEWVSSINVRAGDTYYADSVKGRFTISRDNSKNTLFLLMNSLRAEDTAAYYCAKARYSSNWGFDFWGQGTLVTVSS
VL: DIVMTQSPDSLTVSLGARTTINCQSSQTILHSSNNHNYLAWYQQKPGLPPKLLIYWSSTRESGVPDRFSGSGSGTDFTLTISSLQAEDVAIYYCQQYSNTPYTFGQGTKLEIN
notes: Tested with human IgG1 Fc (H1H); also called H1M6953N
B6: H1H6807P (antibody, V domains shown)
VH: QVQLVESGGGVVQPGRSLRLSCAASGFTFSDYNMHWVRQAPGKGLEWVAVIWYDGSNKHYADSVKGRFTISRDNSKNTLYLQMNSLRAEDTAVYYCARDGFTIFGMVLDYWGQGTLVTVSS
VL: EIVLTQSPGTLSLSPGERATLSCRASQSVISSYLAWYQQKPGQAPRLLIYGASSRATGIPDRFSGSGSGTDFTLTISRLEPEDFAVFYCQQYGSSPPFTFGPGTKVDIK
notes: Human IgG1 Fc (H1H)
B7: H1H6801P (antibody, human IgG1, V domains shown)
VH: QVQLQQSGPGLVKPSQTLSLTCVISGDSVSSNTAWNWVRQSPSRGLEWLGRTYYRSKWYNDYAVSVKSRITINPDTSKNQFSLLMNSVTPEDTAVYYCARVVRGLNYFDYWGQGTLVTVSS
VL: DIVMTQSPDSLAVSLGERATINCKSSQSVLYNSNNKNYLAWYQQKPGQPPKLLIYWSSSRESGVPDRFSGSGSGTDFTLTISGLQAEDVAIYYCQQYSTIPYTFGQGTKLEIK
notes: Human IgG1 Fc (H1H)
B8: H1H6804P (antibody, human IgG1, V domains shown)
VH: QVTLKESGPVLVKPTQTLSLTCTVSGFSLSDAGMGVSWIRQPPGKALEWLAHIFSNDGKSYSTSLKSRLTISKDTSKRQVVLTMTNMDPVDTATYYCARIRTGTYSLYLDYWGQGTLVTVSS
VL: DIQMTQSPSSLSASVGDRVTITCRASQSINSYLNWYQQKPGKAPKLLLYFASSLQSGVPSRFSGSGSGTDFTLTISSLQPEDFASYYCQESYSTPWTFGQGTKVEIK
notes: Human IgG1 Fc (H1H)
B9: H1H6958N2 (antibody, human IgG1, V domains shown)
VH: QVQLVESGGGVVQPGRSLRLSCGASGFTFRNYGMQWVRQGPGKGLEWVTLISFDGNDKYYADSVKGRFTISRDNSKNTLFLQMNSLRTEDTAVYYCARGGDFDYWGQGTLVTVSS
VL: DIQMTQSPSSLSASVGDRVTITCRASQDIRKDLGWYQQKPGKAPKRLIYAASSLHSGVPSRFSGSGSGTEFTLTISSLQPEDFATYYCLQHNSYPMYTFGQGTKLEIK
notes: Tested with human IgG1 Fc (H1H); also called H2M6958N2
B10: H1H6959N2 (antibody, human IgG1, V domains shown)
VH: EVQLVESGGGLVQPGRSLRLSCAASGFTFDDYAMHWVRQAPGKGLEWVSGISWHSGIIGYADSVKGRFTISRDNAKNSLYLQMNSLRTEDAALYYCAKIGSYFYFDSWGQGTLVTVSS
VL: EIVLTQSPGTLSLSPGERATLSCRASQSVSSNYLAWYQQKPGQAPRLLIYGASSRATGIPDRFSGSGSGTDFTLTISRLEPEDFAVYYCQQFGSSGYTFGQGTNLEIK
notes: Tested with human IgG1 Fc (H1H); also called H2M6959N2

Biological target: T1, human prolactin receptor (PRLR)
Assay: cell-based or functional assay

Binder | % Kill, 293/PRLR cells [%] | % Kill, PC3/PRLR cells [%] | IC50, cell viability, 293/PRLR cells [nM] | IC50, cell viability, PC3/PRLR cells [nM]
B1 | 95 | 82 | 0.38 | 1.13
B2 |  | 66 |  | 0.98

Biological target: T1, human prolactin receptor (PRLR)
Assay: cell-based or functional assay
Remark: another data set of the same source

Binder | % Kill, MCF7/PRLR cells [%] | % Kill, MCF7 cells [%] | % Kill, T47D cells [%] | IC50, cell viability, MCF7/PRLR cells [nM] | IC50, cell viability, MCF7 cells [nM] | IC50, cell viability, T47D cells [nM]
B1 | 78 | 77 | 71 | 0.29 | 100 | 5.1
B2 | 83 | 64 | 80 | 0.46 | 110 | 12.6

Biological target: T2, hPRLR.mmh (soluble monomeric human PRLR)
Assay: SPR Biacore, 25 C, mAb capture
Procedure: (§1) Measurements were conducted on a T200 Biacore instrument. Kinetic association (kₐ) and dissociation (kd) rate constants were determined by processing and fitting the data to a 1:1 binding model using Scrubber 2.0 curve fitting software.

Kd [nM] | T½ [min] | koff [s⁻¹] | kon [M⁻¹ s⁻¹] | Binder
1.67 | 84 | 0.000137 | 82400 | B3
6.74 | 15.8 | 0.000729 | 108000 | B4
0.268 | 54.5 | 0.000212 | 792000 | B5
0.189 | 80 | 0.000144 | 761000 | B6
0.894 | 15 | 0.000756 | 846000 | B7
1.4 | 18 | 0.000634 | 453000 | B8
1.17 | 42.5 | 0.000272 | 233000 | B9
202 | 0.3 | 0.036 | 179000 | B10

Biological target: T3, hPRLR.mFc (soluble dimeric human PRLR)
Assay: SPR Biacore, 25 C, mAb capture
Procedure: as §1

Kd [nM] | T½ [min] | koff [s⁻¹] | kon [M⁻¹ s⁻¹] | Binder
0.607 | 184 | 6.29e-05 | 104000 | B3
0.141 | 324 | 3.56e-05 | 252000 | B4
0.067 | 242 | 4.77e-05 | 711000 | B5
0.0803 | 212 | 5.46e-05 | 680000 | B6
0.161 | 106 | 0.000109 | 675000 | B7
0.193 | 133 | 8.69e-05 | 451000 | B8
0.0867 | 316 | 3.66e-05 | 422000 | B9
1.45 | 22.3 | 0.000518 | 359000 | B10

Biological target: T4, macaca fascicularis (mf) PRLR.mmh …
Assay: SPR Biacore, 25 C, mAb capture
Procedure: as §1

Kd [nM] | T½ [min] | koff [s⁻¹] | kon [M⁻¹ s⁻¹] | Binder
3.37 | 55 | 0.000209 | 62100 | B3
6.2 | 19.8 | 0.000583 | 94000 | B4
0.438 | 36.3 | 0.000319 | 727000 | B5
0.346 | 76 | 0.000151 | 437000 | B6
1.88 | 9 | 0.00123 | 657000 | B7
1.99 | 18 | 0.000657 | 331000 | B8
1.44 | 41.3 | 0.00028 | 195000 | B9
129 | 0.7 | 0.0167 | 129000 | B10
